{"source": "paper PMC6458971", "target": "AviTagged clade B YU-2 gp140 trimers (HIV-1 clade B, strain YU-2 | not stated)", "experiment": "SEC"}
{"substance": "AviTagged clade B YU-2 gp140 trimers (domain or fragment)", "values": [{"measurement": "stoichiometry N", "value": 3}]}
